The results in this text go back to PMC4499191.

Test [1] concerns the target Nck1 (Nck1-GFP, GST-Nck1 constructs) SH2 domain (UniProt P16333). As to the kind of experiment: GST-Nck SH2 pull-down from lysate. The conditions noted are these: reference: wild type.
In a further test the target is T1, GST-Nck SH2, P16333.
T1 chain: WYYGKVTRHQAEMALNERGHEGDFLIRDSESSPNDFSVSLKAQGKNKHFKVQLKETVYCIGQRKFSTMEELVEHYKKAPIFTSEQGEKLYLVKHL
Description: GST pull-down, anti-HA immunoblot quantified by ImageJ. The conditions noted are these: chain shown with the change; 293T cells transiently transfected with Lck and HA-tagged TSAd constructs; lane 7. (In general: Immunoblotting shows a protein as a band on a membrane.)

In the case of “TSAd (T cell specific adaptor protein) (from UniProt Q9NP31) Y280,305F”, the “binding against the reference” value in test [1] (sites Y280,Y305) is recorded as “lost”.

For “TSAd (T cell specific adaptor protein) (from UniProt Q9NP31) Y280F”, the “binding against the reference” value in test [1] (sites Y280) was “weaker”.

B1: HA-tagged TSAd WT co-expressed with Lck in 293T cells (tyrosine phosphorylated), Q9NP31-1 Y280F; Y290F; Y305F (protein)
chain: MEFPLAQICPQGSHEAPIPTFSTFQITDMTRRSCQNLGYTAASPQAPEAASNTGNAERAEEVPGEGSLFLQAETRAWFQKTQAHWLLQHGAAPAWFHGFITRREAERLLEPKPQGCYLVRFSESAVTFVLTYRSRTCCRHFLLAQLRDGRHVVLGEDSAHARLQDLLLHYTAHPLSPYGETLTEPLARQTPEPAGLSLRTEESNFGSKSQDPNPQYSPIIKQGQAPVPMQKEGAGEKEPSQLLRPKPPIPAKPQLPPEVYTIPVPRHRPAPRPKPSNPIFNEPDEPIAFFAMGRGSPGEAPSNIFVEVEDEGLPATLGHPVLRKSWSRPVPGGQNTGGSQLHSENSVIGQGPPLPHQPPPAWRHTLPHNLSRQVLQDRGQAWLPLGPPQ
Turning to B1, the ratio to parent with GST-Nck SH2, P16333 is -0.
